Bridges are numbered along the chain shown (N, C = ends). Where no end group is shown, it is not given here.

Common to all, as to settings: both partners purified
The target in assay [1] is T1, Human carboxypeptidase B1 (hCPB1) (human, UniProt P15086 111-417).
T1 construct: also called human CPB1
T1 sequence (looked up): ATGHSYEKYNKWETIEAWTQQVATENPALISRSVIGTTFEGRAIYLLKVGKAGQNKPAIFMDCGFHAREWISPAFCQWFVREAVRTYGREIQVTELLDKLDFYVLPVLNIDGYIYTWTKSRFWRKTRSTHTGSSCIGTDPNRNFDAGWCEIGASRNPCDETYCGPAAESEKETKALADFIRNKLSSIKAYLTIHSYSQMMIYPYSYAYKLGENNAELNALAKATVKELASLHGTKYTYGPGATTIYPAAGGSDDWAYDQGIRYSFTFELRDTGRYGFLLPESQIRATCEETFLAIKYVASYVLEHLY
Briefly: enzyme inhibition kinetics (tight-binding inhibitor, Morrison equation); CPBs: inhibition of hydrolysis of N-(4-methoxyphenylazoformyl)-Arg-OH (0.1 mM) at 355 nm; 20 mM Tris-HCl pH 7.5, 1% v/v DMSO, 0.05% w/v Brij-35, 0.1 M NaCl; 37 °C; enzyme constant (6.0 nM hCPB1 and pCPB1), increasing amounts of inhibitor.

In assay [2] the target is T2, Porcine carboxypeptidase B (pCPB1) (porcine, UniProt P09955 111-416).
T2 construct: Porcine carboxypeptidase B (CPB1), purchased active enzyme; also called porcine CPB1; source: bought: Sigma
T2 sequence (looked up): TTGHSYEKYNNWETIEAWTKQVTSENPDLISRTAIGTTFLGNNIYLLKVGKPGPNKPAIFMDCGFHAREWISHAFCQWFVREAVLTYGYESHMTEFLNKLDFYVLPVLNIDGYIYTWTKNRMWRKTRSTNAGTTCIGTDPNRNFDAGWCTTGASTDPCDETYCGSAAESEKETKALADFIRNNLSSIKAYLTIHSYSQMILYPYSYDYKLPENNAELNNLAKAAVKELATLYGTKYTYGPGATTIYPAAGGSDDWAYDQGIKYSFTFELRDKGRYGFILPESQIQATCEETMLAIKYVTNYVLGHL
Described as above.

Assay [3] concerns the target T3, Human carboxypeptidase A1 (hCPA1) (human, UniProt P15085 111-419).
T3 construct: also called human CPA1
T3 sequence (looked up): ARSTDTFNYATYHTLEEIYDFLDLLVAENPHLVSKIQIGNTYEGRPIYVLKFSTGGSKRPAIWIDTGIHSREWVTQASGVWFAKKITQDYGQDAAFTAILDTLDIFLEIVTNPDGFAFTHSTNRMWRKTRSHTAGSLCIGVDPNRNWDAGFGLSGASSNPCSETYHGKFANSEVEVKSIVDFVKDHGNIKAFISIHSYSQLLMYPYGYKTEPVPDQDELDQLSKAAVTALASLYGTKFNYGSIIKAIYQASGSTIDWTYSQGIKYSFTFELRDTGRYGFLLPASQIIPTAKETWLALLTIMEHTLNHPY
Briefly: enzyme inhibition kinetics (tight-binding inhibitor, Morrison equation); CPAs: inhibition of hydrolysis of N-(4-methoxyphenylazoformyl)-Phe-OH (0.1 mM) at 355 nm; 20 mM Tris-HCl pH 7.5, 1% v/v DMSO, 0.05% w/v Brij-35, 0.5 M NaCl; 37 °C; enzyme constant (7.5 nM hCPA1, 6.0 nM bCPA1), increasing amounts of inhibitor.

Assay [4] deals with T4, Bovine carboxypeptidase A (bCPA1) (bovine, UniProt P00730 111-419).
T4 construct: Bovine carboxypeptidase A (CPA1), purchased active enzyme; also called bovine CPA1; source: bought: Sigma
T4 sequence (looked up): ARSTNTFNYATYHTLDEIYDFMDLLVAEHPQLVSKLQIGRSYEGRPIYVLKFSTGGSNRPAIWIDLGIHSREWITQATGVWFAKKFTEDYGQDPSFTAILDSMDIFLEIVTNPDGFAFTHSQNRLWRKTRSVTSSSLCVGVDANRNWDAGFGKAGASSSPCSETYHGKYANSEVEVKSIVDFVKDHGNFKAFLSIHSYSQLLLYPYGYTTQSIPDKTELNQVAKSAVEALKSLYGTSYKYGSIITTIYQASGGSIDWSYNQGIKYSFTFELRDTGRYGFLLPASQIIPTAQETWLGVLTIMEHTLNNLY
Described as above.

B1: Nerita versicolor carboxypeptidase inhibitor (NvCI), native (natural protein, UniProt P86912 1-53, looked up)
chain: FHVPDDRPCINPGRCPLVPDATCTFVCKAADNDFGYECQHVWTFEGQRVGCYA
modifications: disulfide 15-51, 9-23, 27-38
notes: comprises 53 residues, C-terminal tail Cys51-Tyr52-Ala53; also called native NvCI; 3S-S native form; source: Pichia pastoris, secreted into the extracellular medium, purified (ion exchange, size exclusion); repurified by RP-HPLC
By Ki is commonly meant a measure of affinity in units of concentration, obtained from inhibition or displacement. A low value points to a stronger hold on the target. B1: the Ki in assay [1] was 0.62 nM; in assay [2], 0.53 nM; in assay [3], 0.00118 nM; in assay [4] it was 0.00491 nM.

B2: des(15–51) NvCI folding/unfolding intermediate (natural protein, Nerita versicolor, UniProt P86912 1-53, looked up)
chain: FHVPDDRPCINPGRCPLVPDATCTFVCKAADNDFGYECQHVWTFEGQRVGCYA
modifications: disulfide 9-23, 27-38; cysteine pairing not given here
notes: differs only in the missing Cys15-Cys51 disulfide; also called intermediate IIb; fraction IIb
For B2, the inhibitory constant (Ki) in assay [1] is 7.85 nM; in assay [2], 4.9 nM; in assay [3], 1 nM; in assay [4] it was 2.01 nM.

The values above are taken from PMC5511257, “Plasticity in the Oxidative Folding Pathway of the High Affinity Nerita Versicolor Carboxypeptidase Inhibitor (NvCI)” (Scientific Reports, 2017).
